From the supplement of paper PMC7877785
± gives the uncertainty stated by the source.

Test: self-splicing fitness, log relative to wild type (ln ratio); higher = more splicing; Tetrahymena group I intron in knt gene, E. coli kanamycin selection, DiMSum; sequences stand for … in CUCUCU…GGAGGGAAAAGUUAUCAGGCAUGCACCUGGUAGCUAGUCUUUAAACCAAUAGAUUGCAUCGGUUUAAAAGGCAAGACCGUCAAAUUGCGGGAAAGGGGUCAACAGCCGUUCAGUACCAAGUCUCAGGGGAAACUUUGAGAUGGCCUUGCAAAGGGUAUGGUAAUAAGCUGACGGACAUGGUCCUAACCACGCAGCCAAGUCCUAAGUCAACAGAUCUUCUGUUGAUAUGGAUGCAGUUCACAGACUAAAUGUCGGUCGGGGAAGAUGUAUUCUUCUCAUAAGAUAUAGUCGGACCUCUCCUUAAUGGGAGCUAGCGGAUGAAGUGAUGCAACACUGGAGCCGCUGGGAACUAAUUUGUAUGCGAAAGUAUAUUGAUUAGUUUUGGAGUACUCGUGGUCG
Summary of the method: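 DiMSum derived fitness as the error-weighted combination of fold changes across replicates, kanamycin versus no kanamycin, normalised to wild type. E. coli BL21(DE3) held the library, which randomised all eight P1ex-region intron nucleotides within the knt kanamycin-resistance gene on pET-22b(+). Six replicate transformations grew overnight at 37°C or 30°C on LB agar with or without 25 μg/mL kanamycin, also containing 100 μg/mL carbenicillin, 50 μM IPTG and 0.2% rhamnose, and pooled colonies were amplicon-sequenced on an Illumina HiSeq 2500.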

Row | Sequence | self-splicing fitness (ln) (30 °C) | self-splicing fitness (ln) (37 °C)
1 | CGUCAGCAAUAUUACGUUCU | -1.39 ± 0.098 | -0.462 ± 0.11
2 | AACGAGCAAUAUUACGGUGA | -3.07 ± 0.33 | -1.99 ± 0.31
3 | GGACAGCAAUAUUACGGUAU | -0.41 ± 0.066 | -0.343 ± 0.09
4 | AUAGAGCAAUAUUACGGUCU | -1.2 ± 0.11 | -0.695 ± 0.15
5 | GGUUAGCAAUAUUACGUAUA | -1.45 ± 0.14 | -1.24 ± 0.19
6 | GCGCAGCAAUAUUACGCACG | – | -1.39 ± 0.3
7 | UGUCAGCAAUAUUACGCGGU | -3.09 ± 0.26 | -2.2 ± 0.29
8 | CCAGAGCAAUAUUACGAACU | -3.13 ± 0.35 | -1.86 ± 0.35
9 | CCUUAGCAAUAUUACGCGAA | -4.02 ± 0.26 | -2.62 ± 0.29
10 | AGAGAGCAAUAUUACGCACU | -3.16 ± 0.34 | -2.41 ± 0.32
11 | CGGCAGCAAUAUUACGGUGG | -1.41 ± 0.09 | -0.157 ± 0.082
12 | GACAAGCAAUAUUACGCUCU | -2.38 ± 0.13 | -1.08 ± 0.12
13 | UAACAGCAAUAUUACGCUUU | -3.43 ± 0.14 | -1.82 ± 0.13
14 | ACUCAGCAAUAUUACGCGGA | -2.79 ± 0.16 | -3.35 ± 0.27
15 | AGACAGCAAUAUUACGAUGC | -3.36 ± 0.23 | -2.33 ± 0.19
16 | UCGAAGCAAUAUUACGCUAU | -3.24 ± 0.19 | -3.36 ± 0.42
17 | GAGUAGCAAUAUUACGCGAA | – | -0.658 ± 0.37
18 | UGCAAGCAAUAUUACGCCGU | -2.38 ± 0.36 | -1.81 ± 0.25
19 | GAUUAGCAAUAUUACGUCCA | -2.04 ± 0.21 | 0.198 ± 0.18

Row | Sequence | self-splicing fitness (ln) (30 °C) | self-splicing fitness (ln) (37 °C)
20 | CCAAAGCAAUAUUACGGCGU | -3.49 ± 0.12 | -2.62 ± 0.14
21 | UAGGAGCAAUAUUACGUAAA | -2.09 ± 0.16 | -1.49 ± 0.15
22 | ACUGAGCAAUAUUACGCAAC | -3.87 ± 0.31 | –
23 | AUGGAGCAAUAUUACGUAUC | -3.83 ± 0.47 | -1.67 ± 0.24
24 | GCCAAGCAAUAUUACGUACA | -2.65 ± 0.16 | -1.65 ± 0.11
25 | CAGAAGCAAUAUUACGGUCG | -0.112 ± 0.075 | 0.395 ± 0.11
26 | UGCUAGCAAUAUUACGCACC | -1.91 ± 0.34 | -0.242 ± 0.37
27 | GUGUAGCAAUAUUACGGAAA | -3 ± 0.28 | -1.42 ± 0.27
28 | CAGCAGCAAUAUUACGGCAG | -0.983 ± 0.079 | -0.261 ± 0.11
29 | UACGAGCAAUAUUACGAGGC | -4.33 ± 0.39 | -2.51 ± 0.25
30 | GACAAGCAAUAUUACGGUCG | -1.22 ± 0.076 | -0.0208 ± 0.09
31 | UGCCAGCAAUAUUACGCUCA | -0.505 ± 0.061 | -0.207 ± 0.07
32 | ACCUAGCAAUAUUACGGUUG | -3.37 ± 0.13 | -2.71 ± 0.17
33 | GCCUAGCAAUAUUACGUGCG | -1.6 ± 0.075 | -0.358 ± 0.078
34 | UCGCAGCAAUAUUACGAAUC | -4.04 ± 0.2 | -2.61 ± 0.2
35 | UCCGAGCAAUAUUACGAUUA | -1.94 ± 0.28 | -1.72 ± 0.26
36 | AGGAAGCAAUAUUACGCCAC | -2.13 ± 0.24 | -2.64 ± 0.41
37 | CAUUAGCAAUAUUACGCCUC | -1.17 ± 0.21 | -1.83 ± 0.31
38 | GAGCAGCAAUAUUACGUUUG | -2.84 ± 0.11 | -1.31 ± 0.11
